# Experimental data: paper PMC9079162 (Computational and Structural Biotechnology Journal, 2022)
# B1: factor H binding protein (fHbp) variant1 (natural protein)
# chain: CSSGGGGVAADIGAGLADALTAPLDHKDKGLQSLTLDQSVRKNEKLKLAAQGAEKTYGNGDSLNTGKLKNDKVSRFDFIRQIEVDGQLITLESGEFQVYKQSHSALTAFQTEQIQDSEHSGKMVAKRQFRIGDIAGEHTSFDKLPEGGRATYRGTAFGSDDAGGKLTYTIDFAAKQGNGKIEHLKSPELNVDLAAADIKPDGKRHAVISGSVLYNQAEKGSYSLGIFGGKAQEVAGSAEVKTVNGIRHIGLAAKQ
# Target: human complement regulatory factor H (hfH) (human, UniProt P08603 19-1231)
# Sequence (P08603 19-1231): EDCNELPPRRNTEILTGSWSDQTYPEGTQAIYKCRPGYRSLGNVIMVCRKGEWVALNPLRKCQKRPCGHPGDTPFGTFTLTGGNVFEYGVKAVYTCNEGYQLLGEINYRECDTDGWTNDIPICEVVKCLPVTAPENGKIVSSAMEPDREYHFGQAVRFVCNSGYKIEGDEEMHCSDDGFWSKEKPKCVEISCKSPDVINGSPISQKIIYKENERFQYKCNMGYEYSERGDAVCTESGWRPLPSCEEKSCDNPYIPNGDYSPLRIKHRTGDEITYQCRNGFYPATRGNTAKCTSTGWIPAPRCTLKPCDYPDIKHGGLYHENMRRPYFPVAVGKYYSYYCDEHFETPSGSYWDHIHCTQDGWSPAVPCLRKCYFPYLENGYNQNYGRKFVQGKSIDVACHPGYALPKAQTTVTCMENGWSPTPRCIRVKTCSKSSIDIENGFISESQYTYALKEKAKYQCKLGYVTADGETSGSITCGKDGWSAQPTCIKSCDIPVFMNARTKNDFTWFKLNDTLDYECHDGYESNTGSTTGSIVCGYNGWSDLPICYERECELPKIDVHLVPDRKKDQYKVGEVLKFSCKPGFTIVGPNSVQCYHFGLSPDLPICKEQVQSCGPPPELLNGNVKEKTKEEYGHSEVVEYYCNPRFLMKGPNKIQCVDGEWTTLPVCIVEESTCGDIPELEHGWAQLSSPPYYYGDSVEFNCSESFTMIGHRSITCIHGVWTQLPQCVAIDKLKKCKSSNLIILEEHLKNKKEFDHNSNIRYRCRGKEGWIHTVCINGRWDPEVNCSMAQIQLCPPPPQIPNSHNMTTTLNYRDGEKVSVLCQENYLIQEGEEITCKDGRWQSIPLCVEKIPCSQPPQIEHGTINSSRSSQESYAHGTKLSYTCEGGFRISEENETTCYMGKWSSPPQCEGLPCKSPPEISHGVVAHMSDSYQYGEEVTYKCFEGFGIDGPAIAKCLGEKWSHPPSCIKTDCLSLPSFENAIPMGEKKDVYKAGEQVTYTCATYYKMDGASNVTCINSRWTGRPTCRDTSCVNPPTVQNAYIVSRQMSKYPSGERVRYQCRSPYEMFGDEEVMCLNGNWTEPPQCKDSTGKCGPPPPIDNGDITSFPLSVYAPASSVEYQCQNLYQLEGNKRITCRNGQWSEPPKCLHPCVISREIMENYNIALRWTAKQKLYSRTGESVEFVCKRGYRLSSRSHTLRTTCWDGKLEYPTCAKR
# Assay: SPR
binder,measurement,value
B1,Kd,22.7 nM
